Our source for the Kd values is paper PMC4822050 (2016).

To fix the notation:
T1: Spacer^Δ660–664 (human, UniProt Q96T88 587-674, Δ660–664)
T1 sequence: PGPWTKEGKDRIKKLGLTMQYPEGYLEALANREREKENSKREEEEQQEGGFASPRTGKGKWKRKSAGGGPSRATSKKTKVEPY

T2: Spacer^Δ642–651 (human, UniProt Q96T88 587-674, Δ642–651)
T2 sequence: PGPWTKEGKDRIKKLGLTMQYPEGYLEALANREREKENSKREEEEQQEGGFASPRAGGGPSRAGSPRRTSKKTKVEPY

T3: Spacer^Δ670–674 (human, UniProt Q96T88 587-674, Δ670–674)
T3 sequence: T1 sequence with T74G, K76P, K77R, T78R, K79T, V80S, E81K, P82K, Y83T

T4: Spacer^Δ665–669 (human, UniProt Q96T88 587-674, Δ665–669)
T4 sequence: T1 sequence with T74G, K76P, K77R, T78R

T5: Spacer^Δ655–659 (human, UniProt Q96T88 587-674, Δ655–659)
T5 sequence: T1 sequence with P70S, S71P, A73R

T6: Spacer^Δ650–654 (human, UniProt Q96T88 587-674, Δ650–654)
T6 sequence: T1 sequence with K64G, S65P, A66S, G67R, G68A, P70S, S71P, A73R

T7: SRA–Spacer of UHRF1 (residues 414–674) (human, UniProt Q96T88 414-674)
T7 chain: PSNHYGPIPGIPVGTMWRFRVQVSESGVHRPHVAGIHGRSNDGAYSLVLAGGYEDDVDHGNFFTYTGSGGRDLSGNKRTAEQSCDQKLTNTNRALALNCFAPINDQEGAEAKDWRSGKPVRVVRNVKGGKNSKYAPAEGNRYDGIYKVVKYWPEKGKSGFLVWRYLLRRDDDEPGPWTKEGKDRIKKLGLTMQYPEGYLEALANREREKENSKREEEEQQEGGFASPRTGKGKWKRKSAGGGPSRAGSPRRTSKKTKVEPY

T8: Spacer S666D (human, UniProt Q96T88 587-674, S666D)
T8 sequence: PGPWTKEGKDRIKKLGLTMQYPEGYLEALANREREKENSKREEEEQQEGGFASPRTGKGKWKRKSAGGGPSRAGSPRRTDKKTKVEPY

T9: Spacer K648D (human, UniProt Q96T88 587-674, K648D)
T9 sequence: T8 sequence with K62D, D80S

T10: Spacer S651D (human, UniProt Q96T88 587-674, S651D)
T10 sequence: T8 sequence with S65D, D80S

T11: Spacer R649A (human, UniProt Q96T88 587-674, R649A)
T11 sequence: T8 sequence with R63A, D80S

T12: Spacer S639D (human, UniProt Q96T88 587-674, S639D)
T12 sequence: T8 sequence with S53D, D80S

B1: TTD of UHRF1 (residues 134–285) (domain or fragment)
chain: LYKVNEYVDARDTNMGAWFEAQVVRVTRKAPSRDEPCSSTSRPALEEDVIYHVKYDDYPENGVVQMNSRDVRARARTIIKWQDLEVGQVVMLNYNPDNPKERGFWYDAEISRKRETRTARELYANVVLGDDSLNDCRIIFVDEVFKIERPGE
B2: Spacer of UHRF1 (residues 587–674) (domain or fragment)
chain: T8 sequence with D80S
B3: unmodified peptide of Spacer^642–664 (peptide)
peptide: TGKGKWKRKSAGGGPSRAGSPRR
B4: peptide of Spacer^642–664 phosphorylated at S651 (peptide)
peptide: TGKGKWKRK[pS]AGGGPSRAGSPRR
B5: Spacer^642–674 (domain or fragment)
chain: TGKGKWKRKSAGGGPSRAGSPRRTSKKTKVEPY

Assay [1] concerns the target T1, Spacer^Δ660–664. The experiment in a line: ITC. A general note: Isothermal titration calorimetry measures the heat released or taken up as one component is titrated into another.
Assay [2] has as its target T2, Spacer^Δ642–651. The experiment in a line: ITC.
Assay [3] has as its target T3, Spacer^Δ670–674. Briefly: ITC.
For assay [4], the target named is T4, Spacer^Δ665–669. The experiment in a line: ITC.
Assay [5] has as its target T5, Spacer^Δ655–659. Briefly: ITC.
Assay [6] concerns the target T6, Spacer^Δ650–654. The experiment in a line: ITC.
For assay [7], the target named is B2. Briefly: ITC; in presence of hm-DNA (1:2).
Assay [8] deals with T7, SRA–Spacer of UHRF1 (residues 414–674). The experiment in a line: ITC; in presence of hm-DNA (1:2).
The target in assay [9] is T8, Spacer S666D. Briefly: ITC.
Assay [10] addresses T9, Spacer K648D. Briefly: ITC.
Assay [11] concerns the target T10, Spacer S651D. The experiment in a line: ITC.
The target of assay [12] is T11, Spacer R649A. The experiment in a line: ITC.
The target in assay [13] is T12, Spacer S639D. The experiment in a line: ITC.
The target of assay [14] is B2. The experiment in a line: ITC.
For assay [15], the target named is T7, SRA–Spacer of UHRF1 (residues 414–674). Briefly: ITC.
Assay [16] addresses B1. Briefly: ITC; in presence of Linker (TTD:Linker 1:2).
The target in assay [17] is B1. The experiment in a line: ITC; in presence of Linker.
In assay [18] the target is B1. The experiment in a line: ITC.
In assay [19] the target is B1. Briefly: ITC; phosphorylated S651.

Positions count from the first letter of the chain named. Non-standard residues stand in square brackets, D forms with d. No end group written: not given here. pS = N[C@@H](COP(=O)(O)O)C(=O)O

Usually Kd stands for the constant that tells how readily two partners part at equilibrium. As for B1, the Kd in [1] worked out at 2470 nM; in [2], 11200 nM; in assay [3] it was 950 nM; in [4] it was 1850 nM; in assay [5] it was 2980 nM; in [6] it was 3800 nM. Moreover, the Kd was 2040 nM in assay [7]; 143000 nM in assay [8]; 1260 nM in assay [9]; 5940 nM in assay [10]; 8810 nM in assay [11]; 21400 nM in assay [12]. Besides, the figures for the Kd in assay [13], in [14] and in assay [15] were 1150 nM, 2340 nM and 820 nM, respectively.

As to B2, the Kd in assay [16] and in [17] was 3730 nM throughout.

As for B3, the affinity in assay [18], expressed as Kd, was 1260 nM.

B4 displayed a Kd in [19] of 27800 nM.

B5 had a Kd in [18] of 970 nM.
